These results are taken from paper PMC11021452, “Exposing the molecular heterogeneity of glycosylated biotherapeutics” (Nature Communications, 2024).

The labels stand for the following.
B1: IL22-Fc fusion biotherapeutic (UTTR1147A) [modified: N-linked glycans with sialic acid; 8 N-linked glycosylation sites in the dimer (N21, N35, N64, N143 on each chain); N-linked glycans with sialic acid; 8 N-linked … (parent)
chain 1: APISSHCRLDKSNFQQPYITNRTFMLAKEASLADNNTDVRLIGEKLFHGVSMSERCYLMKQVLNFTLEEVLFPQSDRFQPYMQEVVPFLARLSNRLSTCHIEGDDLHIQRNVQKLKDTVKKLGESGEIKAIGELDLLFMSLRNACI
chain 2: HAPEDPSDLLQHVKFQSSNFENILTWDSGPEGTPDTVYSIEYKTYGERDWVAKKGCQRITRKSCNLTVETGNLTELYYARVTAVSAGGRSATKMTDRFSSLQHTTLKPPDVTCISKVRSIQMIVHPTPTPIRAGDGHRLTLEDIFHDLFYHLELQVNRTYQMHLGGKQREYEFFGLTPDTEFLGTIMICVPTWAKESAPYMCRVKTLPDRTWT

Variants of B1 are the subject of the experiment. Kind of experiment: relative potency assay (method not named for this panel; measured in duplicate). The note with it: with IL-22 RA1 extracellular domain (ECD).
Take chain 1 APISSHCRLDKSNFQQPYITNRTFMLAKEASLADQNTDVRLIGEKLFHGVSMSERCYLMKQVLNFTLEEVLFPQSDRFQPYMQEVVPFLARLSNRLSTCHIEGDDLHIQRNVQKLKDTVKKLGESGEIKAIGELDLLFMSLRNACI: the ratio to parent is 1.54. The value for chain 1 APISSHCRLDKSNFQQPYITNRTFMLAKEASLADNNTDVRLIGEKLFHGVSMSERCYLMKQVLQFTLEEVLFPQSDRFQPYMQEVVPFLARLSNRLSTCHIEGDDLHIQRNVQKLKDTVKKLGESGEIKAIGELDLLFMSLRNACI was 0.64. On to chain 1 APISSHCRLDKSNFQQPYITNRTFMLAKEASLADNNTDVRLIGEKLFHGVSMSERCYLMKQVLNFTLEEVLFPQSDRFQPYMQEVVPFLARLSNRLSTCHIEGDDLHIQRNVQKLKDTVKKLGESGEIKAIGELDLLFMSLRQACI, for which the ratio to parent came out at 0.83.
